We go through one protein from PMC4803751, “Identification and Partial Characterization of a Novel UDP-N-Acetylenolpyruvoylglucosamine Reductase/UDP-N-Acetylmuramate:L-Alanine Ligase Fusion Enzyme from Verrucomicrobium spinosum DSM 4136^T” (Frontiers in Microbiology, 2016).

Broadly, the Km is the substrate concentration at which the rate is half of its maximum. As a reminder, the kcat is the maximal rate divided by the concentration of active sites.

Common to all, as to assay: radiometric HPLC assay of UDP-MurNAc-L-Ala formation
Assay type in all cases: biochemical, Verrucomicrobium spinosum

Substrate in data set [1]: Nc1ncnc2c1ncn2[C@@H]1O[C@H](COP(=O)(O)OP(=O)(O)OP(=O)(O)O)[C@@H](O)[C@H]1O
The note with it: 1 mM UDP-MurNAc, 0.2 mM L-Ala, 10 mM MgCl2, 100 mM Tris-HCl pH 9.0, 10 mM ammonium sulfate, 0.5 mg/mL BSA, 37°C, ATP 0.2-5 mM, MurC activity. From the text: (§1) radiometric HPLC assay of UDP-MurNAc-L-Ala formation on MurB/CVs (MurCVs activity)

Substrate in data set [2]: CC(=O)N[C@H]1[C@@H](OP(=O)(O)OP(=O)(O)OC[C@H]2O[C@@H](n3ccc(=O)[nH]c3=O)[C@H](O)[C@@H]2O)O[C@H](CO)[C@@H](O)[C@@H]1O[C@H](C)C(=O)O
As to conditions: 5 mM ATP, 0.2 mM L-Ala, 10 mM MgCl2, 100 mM Tris-HCl pH 9.0, 10 mM ammonium sulfate, 0.5 mg/mL BSA, 37°C, UDP-MurNAc 25-500 μM, labelled compound, MurC activity.
Text: as §1

Substrate in data set [3]: C[C@H](N)C(=O)O
As to conditions: 5 mM ATP, 1 mM UDP-MurNAc, 10 mM MgCl2, 100 mM Tris-HCl pH 9.0, 10 mM ammonium sulfate, 0.5 mg/mL BSA, 37°C, L-Ala 10-400 μM, labelled compound, MurC activity.
Text: as §1

B1: MurB/CVs (MurCVs activity) (Verrucomicrobium spinosum) (protein)
chain: MNHAVVSLLKEGRHKMHVHLIGVAGSGMSGLALLLMELGHKVSGSDKVTTLETERMEKKGLIFHCPQSEREVEGADMVIYSSAVKPGNPAYEAAYRHGIPLVRRAEALAAIMARKHGVVVAGTHGKTTTSSMAAHVLRVGGAKPSHYVGAEIPILGSNAHWDDAGELFVAEGDESDGTLVKFEPRHAIILNIEAEHLDYYEDLNEIKLVFRQLLEKTSGYSVYCAEDPVATELCEGRKNGISYGWSRDHNFSANILELRPAQTRYEVFQKGELLGEVLLGIPGRHNVLNSLAAISLAVSVGVPFSSIKQALESFRGARRRFEVKYSGSQYQIIDDYGHHPTEIKATLATAKALNPKRIVCLFQPHRYSRTQLLKQEFGGAFNDVDVLCVTDVYAASEKPLPGVSGETILEEVKLQAPGVECHSTPKLLNARDLIGSKLRPGDLLITLGAGNVHEVGSALARDLKVAEQLTTVLNREGGGTVKLYEPMANHTTIRLGGPAQYWIEPMTIQGFAEVVKALRAALIPIRVIGRGSNLLVRDGGIKGAVLHPSKGEFDEVRVDGNFIFAATGVRLKKIASAARAAGLGGFEWMEGIPGNLGGALRMNAGAMGLQTFDQVVSVRFLDGNGELREKMKHEIDHQYRSVPELDRHFAVSAVLQGRPAEAAEIDEKLAASHQKRRGSQPIGASAGCIFKNPGPVPAGKLVDELGLKGRSFGKAIVSDVHGNFILNSGGGTARDVQDLISDIKQVALQERGIMLETEVQIIGEEEPLPL
Regarding B1, the Km in data set [1] was determined as 470 ± 160 µM; in data set [2] it was 90 ± 25 µM; in data set [3], 25 ± 10 µM. In data set [3], the turnover number (kcat) amounted to 8 s⁻¹.
